From US8497352B2, “Use of Wnt5-α peptide derivates for the treatment of melanoma and gastric cancer” (Wntresearch AB, priority 2008, dated 2013)

Tests used:
Assay type in all cases: cell-based, human
A2058 melanoma cells = assay: BD Matrigel invasion chamber assay, A2058 cells; conditions: 0.2 μg/ml Wnt-5a, 24 hours
Protocol: Cell invasion was analyzed using the BD Matrigel™ invasion chamber assay (BD Biosciences, Bedford, Mass.). Prior to the initiation of each experiment, the cells were detached with Versene and re-suspended as single cells in serum-free RPMI medium. As indicated, cells were pre-incubated with the Box5 peptide (100 μM) or control solvent for 40 min with continuous agitation. An aliquot of the cell suspension containing 25,000 cells and 100 μM Box5 or control solvent was then added to the upper transwell chamber, and the lower chamber was filled with serum-containing (10%) medium. The invasion chambers were shaken horizontally for 5 min to ensure even distribution of the cells in suspension and subsequently across the membrane surface. The cells were allowed to invade for the periods of time indicated at 37° C. in a humidified atmosphere of 5% CO2. The medium was discarded and cells were fixed in 4% paraformaldehyde for 10 min. The cells were stained with 0.5% crystal violet in 20% methanol for 10 min and the non-invading cells on the inner side of the membrane were removed with a cotton-tipped applicator. The membrane was cut out of the chamber using a scalpel blade and the stained cells on the lower chamber side of the membrane were counted.

[1] = system: Wnt-5a-induced Ca^2+ signaling; assay: Determination of cytosolic free calcium levels (fura-2) in A2058 cells; conditions: 0.1 μg/ml Wnt-5a
Protocol: Cells grown on a glass cover slip were incubated with 4 μM fura-2/AM in culture medium for 30 minutes at 37° C. (Dejmek et al., 2006). After fura-2 loading of the cells, the cover slips were washed and mounted in a specially designed chamber to which was added a calcium-containing medium (136 mM NaCl, 4.7 mM KCl, 1.2 mM MgSO4, 1.1 mM CaCl2, 1.2 KH2PO4, 5 mM NaHCO3, 5.5 mM glucose and 20 mM Hepes, pH 7.4). The chamber was then placed in a system consisting of a NIKON Diaphot microscope connected to a Photon Technology International (PTI) imaging system. The cells were first allowed to rest for 10 minutes before any stimulation was performed. Fura-2 fluorescence was then recorded continuously from the cells before and after the stimulations with either Wnt-5a, endothelin-1 or charbacol (as indicated in the legend to FIG. 8) using an excitation wavelength rapidly alternating between 340 and 380 nm, while the emission wavelength was set at 510 nm. The fluorescence intensity ratios (340/380 nm) were subsequently calculated and analyzed using the PTI Image Master Software. Statistical analysis—The Student's t-test for unpaired samples was used to analyze differences in the experiments, where *=p<0.05, **=p<0.01, and ***=p<0.001

PKC = assay: MARCKS phosphorylation (PKC activity) in A2058 cells, Western blot; conditions: rWnt-5a 0.2 μg/ml
Protocol: The cells were either directly lysed in 1× Laemmli buffer containing DTT and boiled for 10 min, or lysed in buffer containing 50 mM Tris-HCl (pH 7.5), 1% Triton X-100, 100 mM NaCl, 10 mM MgCl2, 20% glycerol, 1 mM Na3VO4, and protease inhibitors (20 μg/ml aprotinin, 1 μg/ml leupeptin, 2.5 mM benzamidine, and 2 mM pefabloc). Cell treated with lysis buffer were centrifuged at 15,000 rpm for 5 min at 4° C. The protein content in each sample was determined and adjusted to ensure equal loading of protein in each lane. Thereafter, 50 mM DTT and 5× concentrated Laemmli buffer was added and the samples boiled for 5 min. The samples were separated by SDS polyacrylamide gel electrophoresis and subsequently transferred to PVDF membranes. For immunoblotting the membranes were blocked in PBS supplemented with 0.2% Tween 20 and 1% non-fat milk for Wnt-5a or 3% non-fat milk as for all other antibodies for 1 h. […] Finally, the Ab-antigen complexes were detected using enhanced chemiluminescence. […]
In the present study the level of PKC auto-phosphorylation (Weeraratna et al., 2002, Dissanayake et al., 2007) was not estimated since its relation to PKC kinase activity is unclear. Instead the effects of Wnt-5a and Box5 on the phosphorylation of the endogenous PKC substrate MARCKS were analyzed as a direct means of estimating the activity level of PKC in the melanoma cells. […]

B1: Wnt-5a: human recombinant Wnt-5a protein from R&D Systems (protein, UniProt P41221 62-380, looked up)
Protein Wnt-5a: IIGAQPLCSQLAGLSQGQKKLCHLYQDHMQYIGEGAKTGIKECQYQFRHRRWNCSTVDNTSVFGRVMQIGSRETAFTYAVSAAGVVNAMSRACREGELSTCGCSRAARPKDLPRDWLWGGCGDNIDYGYRFAKEFVDARERERIHAKGSYESARILMNLHNNEAGRRTVYNLADVACKCHGVSGSCSLKTCWLQLADFRKVGDALKEKYDSAAAMRLNSRGKLVQVNSRFNSPTTQDLVYIDPSPDYCVRNESTGSLGTQGRLCNKTSEGMDGCELMCCGRGYDQFKTVQTERCHCKFHWCCYVKCKKCTEIVDQFVCK
Effect on invasion of A2058 cells (A2058 melanoma cells): stimulate | Cytosolic Ca^2+ signal in A2058 cells [1]: triggers a rapid cytosolic Ca^2+ signal | Effect on phosphorylation of MARCKS (PKC): increased phosphorylation
